In experiment [1] the target is T1, LAG3 on cells (recombinant CHO cells expressing Lag3) (human, UniProt P18627 29-525).
T1 construct: The cell ELISA paragraphs say only 'Lag3'; also called CHO-LAG3; Lag3 cells
T1 sequence: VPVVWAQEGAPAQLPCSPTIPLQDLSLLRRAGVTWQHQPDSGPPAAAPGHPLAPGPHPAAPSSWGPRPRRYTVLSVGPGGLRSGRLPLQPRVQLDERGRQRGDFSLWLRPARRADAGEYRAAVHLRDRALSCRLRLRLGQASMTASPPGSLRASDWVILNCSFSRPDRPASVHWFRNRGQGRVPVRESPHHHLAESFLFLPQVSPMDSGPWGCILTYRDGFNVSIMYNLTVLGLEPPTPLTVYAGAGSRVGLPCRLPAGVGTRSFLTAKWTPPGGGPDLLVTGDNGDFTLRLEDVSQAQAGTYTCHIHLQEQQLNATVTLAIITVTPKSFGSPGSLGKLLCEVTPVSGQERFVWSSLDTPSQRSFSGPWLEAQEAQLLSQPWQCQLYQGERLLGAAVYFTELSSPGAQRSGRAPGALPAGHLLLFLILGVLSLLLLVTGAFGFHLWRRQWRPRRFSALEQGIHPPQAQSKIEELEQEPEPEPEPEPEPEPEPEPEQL
As to the kind of experiment: cell ELISA on recombinant CHO cells expressing Lag3 (rel. EC50). Background: In an ELISA, binding on a coated surface is turned into a signal by an enzyme label.

Experiment [2] addresses T2, PD1 on PD1+LAG3+ human U2OS cells (UniProt Q15116 25-288). In words: cell-based or functional assay.
Experiment [3] concerns the target T1, LAG3 on cells (recombinant CHO cells …). In words: cell-based or functional assay.
Experiment [4] addresses T3, full-length human PD1 on cells (human, UniProt Q15116 25-288). As to the kind of experiment: cell-based or functional assay.
Experiment [5] addresses T4, LAG3 on PD1+LAG3+ human U2OS cells (Homo sapiens (Human), UniProt P18627 23-525).
T4 construct: also called cellular LAG3 (dimerization assay); not shown: subunit of the reporter enzyme fused to the cytosolic C-terminus
T4 sequence: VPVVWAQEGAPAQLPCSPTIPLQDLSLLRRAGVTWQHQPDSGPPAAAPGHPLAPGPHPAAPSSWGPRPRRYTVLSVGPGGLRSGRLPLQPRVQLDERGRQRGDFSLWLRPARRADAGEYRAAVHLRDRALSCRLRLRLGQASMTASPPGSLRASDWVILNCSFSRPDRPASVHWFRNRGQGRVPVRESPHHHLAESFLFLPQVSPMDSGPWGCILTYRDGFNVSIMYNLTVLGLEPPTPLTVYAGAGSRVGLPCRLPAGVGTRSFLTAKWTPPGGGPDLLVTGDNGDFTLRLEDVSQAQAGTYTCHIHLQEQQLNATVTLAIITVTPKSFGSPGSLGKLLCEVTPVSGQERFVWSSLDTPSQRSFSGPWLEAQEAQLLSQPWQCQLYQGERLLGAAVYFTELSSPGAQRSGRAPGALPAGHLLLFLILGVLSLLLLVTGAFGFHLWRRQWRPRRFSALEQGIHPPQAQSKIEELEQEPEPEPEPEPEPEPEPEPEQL
In words: cellular PD1/LAG3 dimerization assay, 7500 PD1+LAG3+ U2OS cells a well, 20 h at 37 °C, chemoluminescence; the signal needs PD1 and LAG3 bound at once. The method, then:
(§1) Next, assay plates were equilibrated to room temperature and a substrate/buffer mix (PathHunterFlash detection reagent, Discoverx) was added and again incubated for 4h. For measuring chemoluminescence induced upon simultaneous binding and dimerization a SpectraMax L plate reader (Molecular Devices) was used.

The target of experiment [6] is T2, PD1 on PD1+LAG3+ human U2OS cells. The description is as above. The method, then:
as §1

The target in experiment [7] is T3, full-length human PD1 on cells. In words: cell ELISA on CHO-K1 cells expressing full-length human PD1 (rel. EC50). The procedure, abridged: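 Cells bound by test antibody were fixed with 0.05% glutaraldehyde for 10 min at RT, then detected with POD-conjugated anti-human H+L or anti-mouse secondary antibody for 1 h at RT. TMB development ran to OD 1.0-2.0, read at 370/492 nm.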

T2 sequence (Q15116 25-288): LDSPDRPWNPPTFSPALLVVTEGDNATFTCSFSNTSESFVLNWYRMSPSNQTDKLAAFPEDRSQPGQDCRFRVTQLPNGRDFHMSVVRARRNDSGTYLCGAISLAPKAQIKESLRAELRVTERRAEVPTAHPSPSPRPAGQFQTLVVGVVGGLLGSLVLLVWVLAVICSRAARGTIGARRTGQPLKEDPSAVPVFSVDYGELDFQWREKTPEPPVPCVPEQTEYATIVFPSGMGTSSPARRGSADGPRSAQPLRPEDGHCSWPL
T3 sequence (Q15116 25-288 limits assumed): as the sequence (Q15116 25-288) above

B1: PD1/LAG3 0927 (bispecific antibody, human IgG1, kappa, L234A L235A)
heavy 1: not shown
heavy 2: EVQLLESGGGLVQPGGSLRLSCAASGFIFDDYTMNWVRQAPGKGLEWVAVISWDGGGTYYTDSVKGRFTISRDDFKNTLYLQMNSLRAEDTAVYYCAKGLTDTTLYGSDYWGQGTLVTVSSASTKGPSVFPLAPSSKSTSGGTAALGCLVEDYFPEPVTVSWNSGALTSGVHTFPAVLQSSGLYSLSSVVTVPSSSLGTQTYICNVNHKPSNTKVDEKVEPKSCDKTHTCPPCPAPEAAGGPSVFLFPPKPKDTLMISRTPEVTCVVVDVSHEDPEVKFNWYVDGVEVHNAKTKPREEQYNSTYRVVSVLTVLHQDWLNGKEYKCKVSNKALGAPIEKTISKAKGQPREPQVCTLPPSRDELTKNQVSLSCAVKGFYPSDIAVEWESNGQPENNYKTTPPVLDSDGSFFLVSKLTVDKSRWQQGNVFSCSVMHEALHNHYTQKSLSLSPGK
light 1: EVQLLESGGGLVQPGGSLRLSCAASGFSFSSYTMSWVRQAPGKGLEWVATISGGGRDIYYPDSVKGRFTISRDNSKNTLYLQMNSLRAEDTAVYYCVLLTGRVYFALDSWGQGTLVTVSSASVAAPSVFIFPPSDEQLKSGTASVVCLLNNFYPREAKVQWKVDNALQSGNSQESVTEQDSKDSTYSLSSTLTLSKADYEKHKVYACEVTHQGLSSPVTKSFNRGEC
light 2: not shown
notes: 1+1 CrossMAb Vh-VL, knobs into holes, IgG1 PGLALA
By EC50 is commonly meant the concentration needed to bring the measured effect to its halfway point. What is called EC50 (read off the curve) is the concentration that produces a half-maximal response. Read a high EC50 (read off the curve) as weaker potency. For B1, the results for the concentration for a half-maximal effect (EC50) in experiment [1] and in experiment [7] were 0.23 nM and 0.1 nM, respectively. Also, the “EC50 [pM], dimerization binding assay (chemoluminescence)” value in experiment [2] is 41 pM. Moreover, the “EC50 [nM], PD-1 & LAG-3 combo reporter assay (NFAT luciferase)” value in experiment [3] and in experiment [4] was 3.1 nM each time. Moreover, the “EC50 (read off the curve)” value in experiment [5] and in experiment [6] was about 50 pM each time.

B2: PD1/LAG3 0799 (bispecific antibody, human IgG1, kappa, L234A L235A)
heavy 1: not shown
heavy 2: EVQLVESGGGLVQPGGSLRLACAASGFTFSDYAMSWVRQAPGKGLEWVSGIDNSGYYTYYTDSVKGRFTISRDDVKNTLYLQMNSLRAEDTAVYLCTKTHSGLIVNDAFDIWGQGTMVTVSSASTKGPSVFPLAPSSKSTSGGTAALGCLVEDYFPEPVTVSWNSGALTSGVHTFPAVLQSSGLYSLSSVVTVPSSSLGTQTYICNVNHKPSNTKVDEKVEPKSCDKTHTCPPCPAPEAAGGPSVFLFPPKPKDTLMISRTPEVTCVVVDVSHEDPEVKFNWYVDGVEVHNAKTKPREEQYNSTYRVVSVLTVLHQDWLNGKEYKCKVSNKALGAPIEKTISKAKGQPREPQVCTLPPSRDELTKNQVSLSCAVKGFYPSDIAVEWESNGQPENNYKTTPPVLDSDGSFFLVSKLTVDKSRWQQGNVFSCSVMHEALHNHYTQKSLSLSPGK
light 1: EVQLLESGGGLVQPGGSLRLSCAASGFSFSSYTMSWVRQAPGKGLEWVATISGGGRDIYYPDSVKGRFTISRDNSKNTLYLQMNSLRAEDTAVYYCVLLTGRVYFALDSWGQGTLVTVSSASVAAPSVFIFPPSDEQLKSGTASVVCLLNNFYPREAKVQWKVDNALQSGNSQESVTEQDSKDSTYSLSSTLTLSKADYEKHKVYACEVTHQGLSSPVTKSFNRGEC
light 2: not shown
notes: as for B1
B2: the 50% effective concentration (EC50) in experiment [1] stood at 0.2 nM; in experiment [7] it was 0.07 nM. In experiment [2], the “EC50 [pM], dimerization binding assay (chemoluminescence)” value was determined as 76 pM.

(Values after US20220387586A1 (Hoffmann-La Roche, published 2022).)
